Assay results: patent publication US20220193111A1, “Method of Treatment” (The University Court of the University of Edinburgh, priority 2018, published 2022)

Experiments:
HUVECs = assay: ECIS plasma membrane capacitance analysis; type: cell-based, human; settings: HUVECs knock-down for miR-148b
Procedure: Confluent HUVECs were transfected with controls or miR-148b mimic or anti-miR-148b and, plated on the ECIS chip array (8W1E or 8W10E). The migration speed was calculated in μm/h, capacitance of the plasma membrane is Cm (μF/cm^2) as reported in Giaever, I, and Keese, C R (1991)^29.

[1] = test system: HUVECs treated with TNF-α/IL-1β; assay: Rescue of TNF-α/IL-1β-induced EndMT in HUVECs; type: cell-based, human; settings: mimic-transfected HUVECs, TNF-α/IL-1β 6 days
Procedure: Human umbilical vein ECs (HUVECs; Lonza) were grown in EGM-2 (comprising EBM-2 with growth factors and other supplements) with 2% Foetal Bovine Serum. Confluent HUVECs were treated with 10 ng/ml TNF-α, IL-1β, TGFβ2 (PeproTech); medium and cytokines were changed every two days. SB431542 (Tocris) has been used at the dose of 10 μM. HEK293T cells (ATCC®, CRL-11268) were cultured in D-MEM with 10% FBS (Life Technologies).
Total RNA was extracted using miReasy kit (Qiagen). Real-time quantification to measure miRNAs was performed with the TaqMan miRNA reverse transcription kit and miRNA assay (Life Technology) using Lightcycler 480 (Roche). miRNAs expression was normalized to the U6 […] (snRU6). For mRNA analysis, cDNA was amplified by quantitative real-time PCR (qPCR) and normalized to 18S ribosomal RNA. Each reaction was performed in triplicate. Quantification was performed by the 2^−ΔΔCt method^52. qPCR was used to measure the expression of miR-148b (miR-148b-3p Thermo Fisher Scientific, Cat. #4426961), snRU6 (ThermoFisher Scientific, Cat. #4331182), TGFβ2, SMAD2, CD31, VE-Cadherin, COL1A1, α-SMA, SLUG, VIM, SNAIL, TWIST, ZEB1/2 and 18S rRNA. Primers are pre-designed from Sigma (KiCgStart™ Primers).
Lipofectamine RNAiMAX (Thermo Fisher Scientific) was used to transfect HUVECs with miR-148b mimic, anti-miR-148b and mimic or anti-miR control (25 nM and […], respectively final concentration) or with siRNA targeting SMAD2 (20 nM final concentration), according to the manufacturer's instructions. jetPEI-HUVECs (Polyplus) was used to transfect HUVECs with DNA plasmids. The following functional assays were performed: BrdU incorporation assay using Cell Proliferation colorimetric assay (Roche); Matrigel assay with HUVECs was performed as previously described using BD Matrigel Basement Membrane Matrix (BD Biosciences)^53.
Proteins were extracted from cultured cells or muscles by using ice-cold buffer A (50 mM Hepes, 150 mM NaCl, 1 mM EDTA, 1 mM EGTA, 25 mM NaF, 5 mM NaPPi, 1%Triton, 1% NP40, 1 mM Na3VO4, 0.25% sodium deoxycholate, 0.5 mM Na-orthovanadate, 1 mM benzamidine, 0.1 mM phenylmethylsulfonyl fluoride). Protein concentration was determined using the Bio-Rad Protein Assay Reagent (Bio-Rad Laboratories, UK). Detection of proteins by Western blot analyses was done following separation of whole cell extracts (20 μg) on SDS-polyacrylamide gels. Proteins were transferred to nitrocellulose membranes and probed with the following antibodies: TGFβ2 (Abcam, ab36495, 1:1000), SMAD2 (SantaCruz Biotechnology, Santa Cruz, Calif., USA; #3102, 1:1000), p-SMAD2 (465/467) (Cell Signaling; #3108, 1:1000); CD31 (Abcam., 1:1000), VE-Cadherin (Abcam, ab33168, 1:1000), COL1A1 (Abcam, ab138492, 1:200), FSP-1 (5100A4; Abcam, ab41532, 1:1000), SLUG (Abcam, ab27568, 1:1000), β-actin (Abcam, ab16039, 1:4000), HDAC3 (GeneTex GTX113303, 1:1000) and GAPDH (GeneTex, GT239, 1:1000) (both used as loading control). For detection, the inventors used secondary antibodies conjugated to horseradish peroxidase which were rabbit anti-mouse (Abcam, ab97046, 1:5000) and goat anti-rabbit (Abcam, ab6721, 1:10000). Detection was developed by chemiluminescence reaction (ECL) (Immunoblot, Millipore, 23225).
Cells were fixed using 4% paraformaldehyde in PBS at room temperature for 15 min. For intracellular staining, fixed cells were permeabilized using 0.5% Triton X-100 in PBS (Sigma-Aldrich) or 0.1% Saponin in PBS at room temperature for 10 min. The blocking of […] antibody activity was performed using 3% bovine serum albumin (BSA) in PBS for 1 hour. Samples were incubated with antibodies to CD31 (Abcam, ab28364, 1:50), VE-cadherin (Abcam, ab33168, 1:100), FSP-1 (Abcam, ab41532, 1:200) and COL1A1 (Abcam, ab138492, 1:100) in PBS containing 1% BSA at 4° C. overnight. […]

anti-miR-148b: miR-148b inhibitor oligonucleotide; suitable inhibitor: hsa-miR-148b-3p miRCURY LNA inhibitor, CAAAGTTCTGTGATGCACTG (SEQ ID NO: 6) (commercial miRCURY LNA inhibitor, LNA positions not given here)
membrane capacitance (Cm) (HUVECs): increased

B1: miR-148b mimic: miR-148b mimic oligonucleotide; in a particular embodiment has SEQ ID NO: 1, the human precursor miR-148b sequence (nucleic acid)
chain: CAAGCACGAUUAGCAUUUGAGGUGAAGUUCUGUUAUACACUCAGGCUGUGGCUCUCUGAAAGUCAGUGCAUCACAGAACUUUGUCUCGAAAGCUUUCUA
modifications: listed as RNA, chemistry not given here
CD31 and VE-cadherin, mRNA and protein levels [1]: rescued | COL1A1 and FSP-1 staining (immunostaining) [1]: decrease | TGFB2, SMAD2, SLUG, FSP-1, COL1A1 (mRNA and protein) [1]: decreased | endothelial markers CD31 and VE-cadherin on ECs membrane (immunostaining) [1]: maintenance | phosphorylation of SMAD2 [1]: reduced
